Some results are limits rather than exact numbers.

Ka, dH and stoichiometry N data for 3 molecules are collected here from PMC5141474, “Diverse specificity of cellulosome attachment to the bacterial cell surface” (Scientific Reports, 2016).

Test in all cases: ITC; VP-ITC, 318.15 K; Doc in the cell, Coh injected (28 x 10 uL); single site-binding model; proteins in 50 mM HEPES pH 7.5, 2 mM CaCl2, 0.5 mM TCEP
The target of test [1] is C. thermocellum CipB XDoc I154A (Clostridium thermocellum).
Test [2] addresses C. thermocellum CipB XDoc M114A (Clostridium thermocellum).
The target in test [3] is C. thermocellum CipB XDoc M118A (Clostridium thermocellum).
Test [4] concerns the target C. thermocellum CipB XDoc S121A (Clostridium thermocellum).
Test [5] has as its target C. thermocellum CipB XDoc (X-module and type-II dockerin of CipB), expressed on its own (Clostridium thermocellum) (UniProt A3DGE8).
The target in test [6] is C. thermocellum CipB XDoc F148A (Clostridium thermocellum).
Test [7] has as its target T1, C. thermocellum ScaF Coh (type-II cohesin of anchoring scaffoldin ScaF), expressed on its own (Clostridium thermocellum, UniProt P71143 29-200).
T1 construct: single type-II cohesin of anchoring scaffoldin ScaF of Clostridium thermocellum (the Coh of PDB 2b59 and 2bm3); also called CohScaF; source: E. coli BL21 (DE3), pET28a, purified (IMAC)
T1 sequence (looked up): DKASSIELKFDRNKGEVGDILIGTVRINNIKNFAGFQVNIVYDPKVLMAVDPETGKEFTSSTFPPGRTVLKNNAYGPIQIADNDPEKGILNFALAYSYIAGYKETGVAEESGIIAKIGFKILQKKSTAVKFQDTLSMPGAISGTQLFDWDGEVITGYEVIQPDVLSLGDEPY
Conditions: both partners purified.

Take “C. thermocellum ScaC2 Coh (type-II cohesin of anchoring scaffoldin ScaC), expressed on its own (domain or fragment)”: the Ka is 1.2e+06 M⁻¹ in test [1], above 1e+09 M⁻¹ in test [5] and 619000 M⁻¹ in test [6]. The dH in test [1] was -9.75 kcal/mol; in test [2], -10.4 kcal/mol; in test [3], -8.66 kcal/mol; in test [4], -10.3 kcal/mol; in test [5], -12.4 kcal/mol; in test [6], -8.83 kcal/mol. Besides, the stoichiometry N in test [1] was determined as 1.02; in test [6], 1.01.
With “C. thermocellum ScaE6 Coh (type-II cohesin of scaffoldin ScaE) (domain or fragment)”, the Ka in test [1] came to 1.08e+07 M⁻¹; in test [2] it was 7.17e+06 M⁻¹; in test [3], 6.96e+06 M⁻¹; in test [4], 9.16e+06 M⁻¹; in test [5], 1.21e+07 M⁻¹. Also, the dH is -17.3 kcal/mol in test [1]; -13 kcal/mol in test [2]; -25.5 kcal/mol in test [3]; -6.93 kcal/mol in test [4]; -8.27 kcal/mol in test [5]. The stoichiometry N came out at 1.03 in test [1]; 1.01 in test [2]; 0.99 in test [3]; 1.01 in test [4]; 1 in test [5].

B1: C. thermocellum CipB XDoc (X-module and type-II dockerin of CipB), expressed on its own (domain or fragment, Clostridium thermocellum)
chain: NNDSTDKTTVSGYISVDFDYPPESESKIKSGFNVKVAGTELSTKTDEKGYFEISGIPGDMREFTLEISKRNYLKRNVTVNGTGKLVVSTEDNPLILWAGDVERKGVQDNAINMVDVMEISKVFGTRAGDEEYVAELDLNMDGAINLFDIAIVIRHFNALPSRY
notes: CipB (ORF Cthe_1806, 2177 amino acids) of Clostridium thermocellum: X-module and C-terminal type-II dockerin (XDoc); numbers count on: the recombinant XDoc chain (X-module 1-98, Doc 99-164); also called XDocCipB; CipB type-II Doc; source: E. coli Tuner (DE3), pET21a, purified (IMAC)
Regarding B1, in test [7], the Ka was above 1e+09 M⁻¹.
